In article PMC6155162, “Identification of mesothelioma-specific sialylated epitope recognized with monoclonal antibody SKM9-2 in a mucin-like membrane protein HEG1” (Scientific Reports, 2018):

B1: Native endogenous HEG1: native HEG1, 400 kDa mucin-like membrane protein, in ACC-MESO4 cells (protein, UniProt Q9ULI3 30-1381, looked up)
Protein HEG homolog 1: TRDPPPSPARRALSLAPLAGAGLELQLERRPEREPPPTPPRERRGPATPGPSYRAPEPGAATQRGPSGRAPRGGSADAAWKHWPESNTEAHVENITFYQNQEDFSTVSSKEGVMVQTSGKSHAASDAPENLTLLAETADARGRSGSSSRTNFTILPVGYSLEIATALTSQSGNLASESLHLPSSSSEFDERIAAFQTKSGTASEMGTERAMGLSEEWTVHSQEATTSAWSPSFLPALEMGELTTPSRKRNSSGPDLSWLHFYRTAASSPLLDLSSSSESTEKLNNSTGLQSSSVSQTKTMHVATVFTDGGPRTLRSLTVSLGPVSKTEGFPKDSRIATTSSSVLLSPSAVESRRNSRVTGNPGDEEFIEPSTENEFGLTSLRWQNDSPTFGEHQLASSSEVQNGSPMSQTETVSRSVAPMRGGEITAHWLLTNSTTSADVTGSSASYPEGVNASVLTQFSDSTVQSGGSHTALGDRSYSESSSTSSSESLNSSAPRGERSIAGISYGQVRGTAIEQRTSSDHTDHTYLSSTFTKGERALLSITDNSSSSDIVESSTSYIKISNSSHSEYSSFFHAQTERSNISSYDGEYAQPSTESPVLHTSNLPSYTPTINMPNTSVVLDTDAEFVSDSSSSSSSSSSSSSSGPPLPLPSVSQSHHLFSSILPSTRASVHLLKSTSDASTPWSSSPSPLPVSLTTSTSAPLSVSQTTLPQSSSTPVLPRARETPVTSFQTSTMTSFMTMLHSSQTADLKSQSTPHQEKVITESKSPSLVSLPTESTKAVTTNSPLPPSLTESSTEQTLPATSTNLAQMSPTFTTTILKTSQPLMTTPGTLSSTASLVTGPIAVQTTAGKQLSLTHPEILVPQISTEGGISTERNRVIVDATTGLIPLTSVPTSAKEMTTKLGVTAEYSPASRSLGTSPSPQTTVVSTAEDLAPKSATFAVQSSTQSPTTVSSSASVNSCAVNPCLHNGECVADNTSRGYHCRCPPSWQGDDCSVDVNECLSNPCPSTAMCNNTQGSFICKCPVGYQLEKGICNLVRTFVTEFKLKRTFLNTTVEKHSDLQEVENEITKTLNMCFSALPSYIRSTVHASRESNAVVISLQTTFSLASNVTLFDLADRMQKCVNSCKSSAEVCQLLGSQRRIFRAGSLCKRKSPECDKDTSICTDLDGVALCQCKSGYFQFNKMDHSCRACEDGYRLENETCMSCPFGLGGLNCGNPYQLITVVIAAAGGGLLLILGIALIVTCCRKNKNDISKLIFKSGDFQMSPYAEYPKNPRSQEWGREAIEMHENGSTKNLLQMTDVYYSPTSVRNPELERNGLYPAYTGLPGSRHSCIFPGQYNPSFISDESRRRDYF
B2: 1 kb: FLAG-tagged N-terminal deletion mutant hHEG1 (1086-1481) (protein)
chain: MSALLILALVGAAVADYKDDDDKLAAANSSIDLVNSCAVNPCLHNGECVADNTSRGYHCRCPPSWQGDDCSVDVNECLSNPCPSTAMCNNTQGSFICKCPVGYQLEKGICNLVRTFVTEFKLKRTFLNTTVEKHSDLQEVENEITKTLNMCFSALPSYIRSTVHASRESNAVVISLQTTFSLASNVTLFDLADRMQKCVNSCKSSAEVCQLLGSQRRIFRAGSLCKRKSPECDKDTSICTDLDGVALCQCKSGYFQFNKMDHSCRACEDGYRLENETCMSCPFGLGGLNCGNPYQLITVVIAAAGGGLLLILGIALIVTCCRKNKNDISKLIFKSGDFQMSPYAEYPKNPRSQEWGREAIEMHENGSTKNLLQMTDVYYSPTSVRNPELERNGLYPAYTGLPGSRHSCIFPGQYNPSFISDESRRRDYF

Tests used:
SKM9-2 [1] = assay: Deglycosylation analysis: western blotting using SKM9-2 of neuraminidase-treated cell lysates; format: binding; details: full-length HEG1, lysates of ACC-MESO4 (native) or HEG1-transfected HEK293T, 6% SDS-PAGE
Excerpt: Figure 8 SKM9-2 epitope produced from mesothelioma cells. (a) Chromatogram of SKMepmin3 separation using anion exchange column. SKMepmin3 produced from HEK293T (blue line) or ACC-MESO4 (pink line) was affinity-purified using SKM9-2-immobilized resins and separated by Mini Q 4.6/50 PE. A major peak of SKMepmin3 purified from HEK293T contained two disialyl T antigens (Fig. 6). (b) Western blotting for epitope-fused GPI-anchor protein (7.6231) treated with neuraminidases. Cell lysate of 7.6231-transfected ACC-MESO1 (top panel), ACC-MESO4 (middle panel), or HEK293T (lower panel) was treated with α2-3 Neuraminidase S or Neuraminidase A, resolved by 4–15% SDS-PAGE, and analyzed by western blotting using SKM9-2. (c) Western blotting for full-length HEG1 treated with neuraminidases. Cell lysates of ACC-MESO4 (upper panel) and HEG1-transfected HEK293T (lower panel) were treated with α2-3 Neuraminidase S or Neuraminidase A and analyzed by 6% SDS-PAGE and western blotting using SKM9-2. (d) Schematic of SKM9-2 epitope. Full-length blots are presented in Supplementary Fig. S10.
Monolayer cells were solubilized with 20 mM Tris buffer (pH 8.0) containing 1% SDS, 1 mM phenylmethylsulfonyl fluoride, 125 mU/mL Benzonase Nuclease (Merck Millipore Co., Tokyo, Japan) (25 µL/cm^2 culture surface area). The lysate (10 µL/lane) was resolved by SDS-PAGE under reducing conditions using 6% polyacrylamide gels or 4–15% precast gels (Bio-Rad Laboratories Inc., Hercules, CA, USA). Then it was transferred to a polyvinylidene difluoride membrane (Immobilon-P; Merck Millipore Co.) by semi-dry blotting in a buffer containing 25 mM Tris, 192 mM glycine, 0.1% SDS, and 20% methanol. The membrane was blocked with 5% non-fat milk in 20 mM Tris-buffered saline (pH 7.2) containing 0.1% Tween 20 and reacted with 1 µg/mL of mAb SKM9-2 or anti-FLAG (Anti-DYKDDDDK tag mAb; 1E6, Wako Pure Chemical Industries, Osaka, Japan). After washing, it was treated with horseradish peroxidase-conjugated goat anti-mouse IgG (Jackson ImmunoResearch, West Grove, PA, USA), and developed with Amersham ECL select (GE Healthcare, Buckinghamshire, UK). Although glycan in non-fat milk often interferes the glycan-dependent binding of an antibody, the SKM9-2 binding was not affected by the blocking using non-fat milk, in comparison with 5% bovine serum albumin (Supplementary Fig. S6).
Cell lysate or SKMepmin3 was treated with α2-3 Neuraminidase S, α2-3, 6, 8, 9 Neuraminidase A, and O-Glycosidase (New England Biolabs Japan, Tokyo, Japan) in 50 mM sodium phosphate (pH 7.5) containing 1% Nonidet P-40, according to the manufacturer’s instructions. The cell lysate sample was resolved by 4–15% or 6% SDS-PAGE under reducing conditions and detected by western blotting using SKM9-2. The analysis of the SKMepmin3 sample was performed by SPR.

SKM9-2 [2] = assay: Western blotting using SKM9-2 of HEG1 truncated mutants and epitope-fused GPI-anchor proteins; format: binding; details: cell lysates of transfected HEK293T, SDS-PAGE under reducing conditions, 1 µg/mL SKM9-2
Excerpt: Figure 1 SKM9-2 binding to truncated mutants of HEG1. Schematics of full-length HEG1 (Full) and the truncated mutants are indicated on the left side and the results of western blotting using SKM9-2 are shown on the right side. Truncated amino acid position, which is based on a full-length variant of HEG1 containing exon 6, is shown as a number in the schematic of domain structure. The region of the SKM9-2 epitope is shown as a red square. […] SLURP GPI-anchor protein[18] was used as a fused GPI-anchor protein (violet square). The terminal sequences of the HEG1 peptide are shown in the western blot lane. The samples were resolved by 6% SDS-PAGE (a and b) or 4–15% SDS-PAGE (c) under reducing conditions and were detected by western blotting using SKM9-2. Cyt, cytoplasmic domain; EGFs, EGF related domains; Ser/Thr, serine/threonine rich region; SLURP, secreted lymphocyte antigen-6/urokinase-type plasminogen activator receptor-related peptide; SP, signal peptide; TM, transmembrane domain. Full-length blots are presented in Supplementary Fig. S7.
Figure 2 Epitope mapping of SKM9-2. Schematic of epitope peptides (left side) and western blots resolved by 4–15% SDS-PAGE (right side) are shown. The HEG1 peptide sequences are indicated in the western blot lane. Each epitope peptide was fused with a signal peptide (dashed line square) and a SLURP GPI-anchor protein (violet square). Full-length blots are presented in Supplementary Fig. S8.
Figure 3 Alanine scanning of SKM9-2 epitope. […] Cell lysates of transfected HEK293T (upper panel) or transfected ACC-MESO1 (lower panel) were resolved by 4–15% SDS-PAGE and analyzed by western blotting using SKM9-2. (b) S897A mutant of FLAG-tagged HEG1 in HEK293T was resolved by 4–15% SDS-PAGE and analyzed by western blotting using SKM9-2 (upper panel) or anti-FLAG mAb (lower panel). Native HEG1 in ACC-MESO4 and FLAG-tagged HEG1 without mutation in HEK293T were used as controls. Full-length blots are presented in Supplementary Fig. S9.
Sequences of tested HEG1 are shown in Supplementary Dataset. Full-length HEG1 cDNA was synthesized from total RNA purified with TRIzol reagent (Thermo Fisher Scientific) from ACC-MESO-4, using an oligo dT primer and SuperScript II RNase H reverse transcriptase (Thermo Fisher Scientific). cDNA encoding the HEG1 open reading frame was amplified by PCR using PrimeSTAR HS DNA Polymerase (Takara Bio Inc., Shiga, Japan). The HEG1 cDNA was cloned and inserted into the pcDNA3.1(−) mammalian expression vector (Thermo Fisher Scientific). For analyses of N-terminal truncation, we inserted mutants into pFLAG-CMV1 (Sigma-Aldrich Japan K.K., Tokyo, Japan). For analyses of C-terminal deletion lacking the transmembrane domain, we used mutants that were fused with a GPI-anchor protein, SLURP1-gpi[18], in pcDNA3.1(+) (Thermo Fisher Scientific) (Supplementary Dataset). Alanine substituted mutants were prepared using site directed mutagenesis. To produce a soluble epitope peptide, a modified HEG1 signal peptide and a C-terminal tag containing the FLAG tag plus a polyhistidine sequence were used in the mammalian expression vector pEF-BOS[39] (Supplementary Dataset). The plasmid constructs were transfected with Lipofectamine 3000 (Thermo Fisher Scientific). The HEG1 peptide-expressing 293 H clone was obtained by selection with geneticin (Thermo Fisher Scientific).
Monolayer cells were solubilized with 20 mM Tris buffer (pH 8.0) containing 1% SDS, 1 mM phenylmethylsulfonyl fluoride, 125 mU/mL Benzonase Nuclease (Merck Millipore Co., Tokyo, Japan) (25 µL/cm^2 culture surface area). The lysate (10 µL/lane) was resolved by SDS-PAGE under reducing conditions using 6% polyacrylamide gels or 4–15% precast gels (Bio-Rad Laboratories Inc., Hercules, CA, USA). […]

| Molecule | SKM9-2 binding (western blot) (SKM9-2 [1]; Neuraminidase A) | SKM9-2 binding (western blot) (SKM9-2 [1]; α2–3 Neuraminidase S) | recognition by SKM9-2 upon western blot analysis (SKM9-2 [2]) |
| --- | --- | --- | --- |
| B1 | lost | weakened | – |
| B2 | – | – | not detected |
